T1: His-tagged GLI1 fragment, amino acids 726-1106
T1 chain: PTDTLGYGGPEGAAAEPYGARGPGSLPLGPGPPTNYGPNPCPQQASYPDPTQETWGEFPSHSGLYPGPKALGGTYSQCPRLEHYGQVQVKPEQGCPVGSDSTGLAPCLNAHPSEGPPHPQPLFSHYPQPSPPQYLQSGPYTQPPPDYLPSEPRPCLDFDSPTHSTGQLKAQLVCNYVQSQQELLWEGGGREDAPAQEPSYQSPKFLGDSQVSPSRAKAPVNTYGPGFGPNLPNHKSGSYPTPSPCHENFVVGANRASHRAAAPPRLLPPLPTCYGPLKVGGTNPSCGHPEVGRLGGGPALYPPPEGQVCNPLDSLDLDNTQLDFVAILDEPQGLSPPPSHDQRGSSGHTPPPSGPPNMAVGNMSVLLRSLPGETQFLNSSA


Legend:
[1] = molecular target: T1, His-tagged GLI1 fragment, amino acids …
ULK3 = experiment: In vitro kinase assay, autophosphorylation; format: biochemical, human; settings: FLAG-tagged protein immunopurified from HEK293 cells, γ-P32-ATP
Description: (§1) HEK293 cells were transfected with 13.5 μg of FLAG-tagged constructs expressed GLI1, GLI2, GLI3, ULK3, ULK3(K44R), ULK3(K139R) or FLAG-CMV-4 empty vector on 10 cm plates. The cells were lysed with 0.5 ml of Lysis Buffer (50 mM Tris HCl, pH 7.4, 150 mM NaCl, 1 mM EDTA, 1% Triton X-100) containing protease inhibitor cocktail (PIC) (Roche Applied Science). The lysates were centrifuged for 15 min at 4° C. and 15000 g, and the supernatants were used for immunoprecipitation (IP). IP was performed using anti-FLAG-M2 affinity gel (Sigma-Aldrich) in batch format according to the manufacture's instructions. Immune complexes were washed three times with 500 μl of Kinase Buffer (KB) (50 mM HEPES, pH 7.4, 20 mM MgCl2, 25 μM ATP) and resuspended in 12.5 μl of KB. One fifth of the immuno-complexes was subjected to WB and the rest was used for the kinase assay.
Kinase reactions were carried out in KB in a total volume of 20 μl of in the presence of 1 μCi of [γ-^32P]ATP per reaction. We used 1 μl of the immunoprecipitated ULK3, ULK3(K44R) or ULK3(K139R) mixed with 5 μl of the GLI-M2 immunocomplexes or 5 μl of bacterially expressed and purified His-GLI1 fragments. Kinase reactions were held at 30° C. for 30 min and terminated by adding of 5 μl of 4× Laemmli Sample Buffer. Proteins were resolved by SDS-PAGE. The gel was dried at 80° C. for 2 h, and autoradiography was performed using Bio-Rad Personal Molecular Imager FX.
To test if ULK3 has an autophosphorylation activity, we expressed FLAG-tagged wild-type ULK3 and mutants ULK3(K44R) and ULK3(K139R) in HEK293 cells, immunopurified and subjected to in vitro kinase assay in the presence of γ-P^32-ATP.

GLI2 = experiment: In vitro kinase assay, phosphorylation of GLI2; format: biochemical; settings: FLAG-tagged GLI2 immunoprecipitated from HEK293 cells
Description: as §1
Kinase reactions were carried out in KB in a total volume of 20 μl of in the presence of 1 μCi of [γ-^32P]ATP per reaction. We used 1 μl of the immunoprecipitated ULK3, ULK3(K44R) or ULK3(K139R) mixed with 5 μl of the GLI-M2 immunocomplexes or 5 μl of bacterially expressed and purified His-GLI1 fragments. Kinase reactions were held at 30° C. for 30 min and terminated by adding of 5 μl of 4× Laemmli Sample Buffer. Proteins were resolved by SDS-PAGE. […]

[2] = tested on: GFP-tagged GLI2 localization in NIH3T3 cells; experiment: Immunofluorescence assay, subcellular localization of GFP-tagged GLI2; format: cell-based, mouse; settings: coexpressed with GFP-tagged GLI2 in NIH3T3 cells
Description: NIH3T3 cells were transfected with GLI1GFP and FLAG-tagged expression constructs for ULK3 or ULK3(K139R) in ratio 1:1 on 8-chamber slides (Falcon, BD Biosciences, San Jose Calif., USA). The cells were fixed with 4% paraformaldehyde and washed three times for 5 min with Stain Wash Medium (SWM) (0.5% BSA and 0.01% NaN3 in PBS). Subsequent permeabilization of cells was performed at RT by 10-min incubation in. PBS supplemented with 0.5% Triton X-100. Afterwards, the cells were washed three times for 5 min with SWM, blocked for 30 min in PBS containing 5% bovine serum albumin (BSA), and incubated with mouse monoclonal M2-anti-FLAG antibody (diluted 1:1000 in SWM) for 1 h at RT with gentle agitation. […] GLI1GFP protein localization was assessed in at least 200 FLAG-positive cells under a fluorescent microscope Olympus BX61 with UPLan SApo 40× objective, and the experiment was repeated three times. […]
Next we examined if overexpression of ULK3 kinase influences the subcellular localization of GLI1 and GLI2 proteins. […] Subcellular localization of GLI1 and GLI2 was determined, and average values were calculated from three independent experiments. […] Overexpressed GLI1GFP was detected both in cytoplasm and nucleus (FIG. 3A). […]

[3] = tested on: GLI1GFP localization in NIH3T3 cells; experiment: Immunofluorescence assay, subcellular localization of GFP-tagged GLI1; format: cell-based, mouse; settings: coexpressed with GLI1GFP in NIH3T3 cells
Description: NIH3T3 cells were transfected with GLI1GFP and FLAG-tagged expression constructs for ULK3 or ULK3(K139R) in ratio 1:1 on 8-chamber slides (Falcon, BD Biosciences, San Jose Calif., USA). The cells were fixed with 4% paraformaldehyde and washed three times for 5 min with Stain Wash Medium (SWM) (0.5% BSA and 0.01% NaN3 in PBS). Subsequent permeabilization of cells was performed at RT by 10-min incubation in. PBS supplemented with 0.5% Triton X-100. Afterwards, the cells were washed three times for 5 min with SWM, blocked for 30 min in PBS containing 5% bovine serum albumin (BSA), and incubated with mouse monoclonal M2-anti-FLAG antibody (diluted 1:1000 in SWM) for 1 h at RT with gentle agitation. After three washes of 10 min with SWM, the cells were incubated for 30 min with secondary antibody Alexa-Fluor 568 (Invitrogen) (diluted 1:500 in SWM) mixed with nuclear stain Hoechst 33342 (diluted 1:100). Cells were washed twice with SWM and mounted with Mowiol 4-88 (Sigma-Aldrich). GLI1GFP protein localization was assessed in at least 200 FLAG-positive cells under a fluorescent microscope Olympus BX61 with UPLan SApo 40× objective, and the experiment was repeated three times. Confocal images were obtained with a Zeiss LSM-510 META confocal laser-scanning microscope (Carl Zeiss MicroImaging GmbH, Germany) equipped with Plan-Apochromat 63×/1.4 oil immersion objective.
Next we examined if overexpression of ULK3 kinase influences the subcellular localization of GLI1 and GLI2 proteins. […] FLAG-tagged ULK3 and ULK3(K139R) (or respective empty vector) were coexpressed with GFP-tagged GLI1 and GLI2 in NIH3T3 cells. Subcellular localization of GLI1 and GLI2 was determined, and average values were calculated from three independent experiments. ULK3 and its mutant remained almost completely cytoplasmic. GFP-tagged GLI2 localized predominantly in the nucleus and its localization was not altered by ULK3 or ULK3(K139R) (data not shown). Overexpressed GLI1GFP was detected both in cytoplasm and nucleus (FIG. 3A). […] Under the influence of ULK3 localization of GLI1 was shifted.

| Molecule | in vitro kinase assay, phosphorylation of a His-tagged GLI1 fragment [1] | autophosphorylation activity (ULK3) | phosphorylation of GLI2 (GLI2) | influence on GLI2 subcellular localization [2] | cells that retained GLI1 in the cytoplasm ([3]; average of three experiments) [%] | cells with GLI1 mostly in the nucleus ([3]; average of three experiments) [%] | cells with uniform distribution of GLI1 ([3]; average of three experiments) [%] | influence on GLI1 subcellular localization [3] |
| --- | --- | --- | --- | --- | --- | --- | --- | --- |
| FLAG-tagged wild-type ULK3 (human serine/threonine kinase ULK3) (protein) MAGPGWGPPRLDGFILTERLGSGTYATVYKAYAKKDTREVVAIKCVAKKSLNKASVENLLTEIEILKGIRHPHIVQLKDFQWDSDNIYLIMEFCAGGDLSRFIHTRRILPEKVARVFMQQLASALQFLHERNISHLDLKPQNILLSSLEKPHLKLADFGFAQHMSPWDEKHVLRGSPLYMAPEMVCQRQYDARVDLWSMGVILYEALFGQPPFASRSFSELEEKIRSNRVIELPLRPLLSRDCRDLLQRLLERDPSRRISFQDFFAHPWVDLEHMPSGESLGRATALVVQAVKKDQEGDSAAALSLYCKALDFFVPALHYEVDAQRKEAIKAKVGQYVSRAEELKAIVSSSNQALLRQGTSARDLLREMARDKPRLLAALEVASAAMAKEEAAGGEQDALDLYQHSLGELLLLLAAEPPGRRRELLHTEVQNLMARAEYLKEQVKMRESRWEADTLDKEGLSESVRSSCTLQ | Two of them-GLI1(1-433) and GLI1(726-1106)-were phosphorylated by ULK3 |  |  |  |  |  |  |  |
| ULK3: human serine/threonine kinase, 472 amino acids (SEQ ID NO: 1), overexpressed from cloned cDNA or immunopurified FLAG-tagged (protein, listed as Homo sapiens, PEPTIDE (1)..(472) ULK3) MAGPGWGPPRLDGFILTERLGSGTYATVYKAYAKKDTREVVAIKCVAKKSLNKASVENLLTEIEILKGIRHPHIVQLKDFQWDSDNIYLIMEFCAGGDLSRFIHTRRILPEKVARVFMQQLASALQFLHERNISHLDLKPQNILLSSLEKPHLKLADFGFAQHMSPWDEKHVLRGSPLYMAPEMVCQRQYDARVDLWSMGVILYEALFGQPPFASRSFSELEEKIRSNRVIELPLRPLLSRDCRDLLQRLLERDPSRRISFQDFFAHPWVDLEHMPSGESLGRATALVVQAVKKDQEGDSAAALSLYCKALDFFVPALHYEVDAQRKEAIKAKVGQYVSRAEELKAIVSSSNQALLRQGTSARDLLREMARDKPRLLAALEVASAAMAKEEAAGGEQDALDLYQHSLGELLLLLAAEPPGRRRELLHTEVQNLMARAEYLKEQVKMRESRWEADTLDKEGLSESVRSSCTLQ |  | strong autophosphorylation activity | strongest phosphorylation signal | not altered | 2 | 70 | 25 |  |
| ULK3(K139R): kinase-deficient ULK3 mutant with Lysine at position 139 mutated to Arginine (SEQ ID NO:7) (protein, MUTAGEN (1)..(472) mutated ULK3 protein ULK3 (K139R)) MAGPGWGPPRLDGFILTERLGSGTYATVYKAYAKKDTREVVAIKCVAKKSLNKASVENLLTEIEILKGIRHPHIVQLKDFQWDSDNIYLIMEFCAGGDLSRFIHTRRILPEKVARVFMQQLASALQFLHERNISHLDLRPQNILLSSLEKPHLKLADFGFAQHMSPWDEKHVLRGSPLYMAPEMVCQRQYDARVDLWSMGVILYEALFGQPPFASRSFSELEEKIRSNRVIELPLRPLLSRDCRDLLQRLLERDPSRRISFQDFFAHPWVDLEHMPSGESLGRATALVVQAVKKDQEGDSAAALSLYCKALDFFVPALHYEVDAQRKEAIKAKVGQYVSRAEELKAIVSSSNQALLRQGTSARDLLREMARDKPRLLAALEVASAAMAKEEAAGGEQDALDLYQHSLGELLLLLAAEPPGRRRELLHTEVQNLMARAEYLKEQVKMRESRWEADTLDKEGLSESVRSSCTLQ |  | almost completely absent |  | not altered |  |  |  | did not influence |

From patent publication US20130040894A1, “INHIBITION OR ACTIVATION OF SERINE/THREONINE ULK3 KINASE ACTIVITY” (TALLINN UNIVERSITY OF TECHNOLOGY, priority 2009, published 2013)
